Measurements taken from US20230034768A1 (BIOSION, published 2023).
Like-named read-outs stand apart in the source and are kept apart here.

Tests used:
[1] = target: T1, Recombinant human RANKL-his protein (R&D, Cat #6449-TEC-010) (human, UniProt O14788 140-317, limits assumed); test: cell-based or functional assay
T1 sequence (looked up): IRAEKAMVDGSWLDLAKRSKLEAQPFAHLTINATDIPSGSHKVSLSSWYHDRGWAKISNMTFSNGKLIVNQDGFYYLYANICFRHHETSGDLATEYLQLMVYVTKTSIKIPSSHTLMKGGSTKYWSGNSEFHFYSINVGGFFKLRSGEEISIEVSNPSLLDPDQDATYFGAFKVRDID

[2] = target: T2, human RANKL-his protein (prepared in-house with SEQ ID NO: 43) (human, UniProt O14788 136-317); test: Octet BLI, antibody captured, human RANKL-his in solution (same value as Table 2)
T2 construct: also called recombinant human RANKL-his
T2 chain: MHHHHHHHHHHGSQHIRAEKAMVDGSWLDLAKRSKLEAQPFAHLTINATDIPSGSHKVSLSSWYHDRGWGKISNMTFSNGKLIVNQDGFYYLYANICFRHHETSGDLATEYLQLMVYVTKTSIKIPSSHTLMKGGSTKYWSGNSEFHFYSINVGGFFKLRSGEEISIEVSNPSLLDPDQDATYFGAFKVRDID
Procedure: (§1) Briefly, AHC/AMC biosensors (anti-human/anti-mouse IgG Fc capture, ForteBio) were presoaked with 10 mM glycine (pH 1.5) for 3 seconds, and then dipped in a well with running buffer (0.5% w/v BSA in PBST) for 3 seconds, the soaking and dipping steps were repeated for three times. […] A new baseline was run for 180 seconds in another well with HBS-EP⁺. […] Finally, sensors were presoaked with 10 mM glycine (pH 1.5) for 3 seconds, and then dipped in a well with running buffer for 3 seconds, the soaking and dipping steps repeated for three times. The association and dissociation curves were fit to a 1:1 Langmuir binding model using Octet evaluation software.

[3] = target: T3, biotin-labeled human RANKL-Fc protein (prepared in house, SEQ ID NO.: 40) (human, biotin-labeled (sites not given)); test: capture ELISA: captured antibody, biotin-labeled human RANKL-Fc, OD(450-630)
T3 construct: also called RANKL-Fc-biotin
Procedure: (§2) Plates were washed once with wash buffer (PBS+0.05% v/v Tween-20, PBST) and then blocked with 200 μl/well blocking buffer (5% w/v non-fatty milk in PBST) for 2 hours at 37° C. […] After a final wash, plates were incubated with 100 μl/well ELISA substrate TMB (Innoreagents, Cat #TMB-S-002) at room temperature. The reaction was stopped in 3-10 minutes with 50 μl/well 1M H₂SO₄, and the absorbance of each well was read on a microplate reader using dual wavelengths mode with 450 nm for TMB and 630 nm as the reference wavelength. The OD (450-630) values were plotted against antibody concentration. Data were analyzed using Graphpad Prism software and EC₅₀ values were reported.

[4] = target: T3, biotin-labeled human RANKL-Fc protein …; test: as above; remark: listed apart in the source
Procedure: as §2
Cell supernatants were harvested after six days in shaking flasks, spun down to pellet cells, and then chimeric antibodies were purified from cell supernatants as described above. The purified antibodies were tested in the capture ELISA, competitive ELISA assay and Octet affinity test following the protocols in the foregoing Examples.

[5] = target: T2, human RANKL-his protein (prepared …); test: Octet BLI, antibody captured on AHC/AMC sensor, human RANKL-his in solution, 1:1 fit
Procedure: as §1

[6] = target: T3, biotin-labeled human RANKL-Fc protein …; test: competitive ELISA: antibody blocks biotin-labeled human RANKL-Fc binding to coated human RANK-Fc
Procedure: (§3) Briefly, human RANK-Fc proteins (prepared in house, SEQ ID NO.: 41) were coated on 96-well micro plates at 2.0 μg/mL in PBS, 100 μl/well, and incubated overnight at 4° C. The next day, plates were washed with wash buffer (PBS+0.05% w/v Tween-20, PBST), and blocked with 5% w/v non-fatty milk in PBST, 200 μl/well, for 2 hours at 37° C.
(§4) Plates were washed 4 times using wash buffer, and added and incubated with 100 μl/well of streptavidin conjugated HRP (1:10000 dilution in PBST buffer, Jackson ImmunoResearch Laboratories, Inc., Cat #016-030-084) for 40 minutes at 37° C. Plates were washed again using wash buffer. Finally, TMB was added and the reaction was stopped using 1M H₂SO₄, and the absorbance of each well was read on a microplate reader using dual wavelengths mode with 450 nm for TMB and 630 nm as the reference wavelength. The OD (450-630) values were plotted against antibody concentration. Data were analyzed using Graphpad Prism software and IC₅₀ values were reported.

[7] = target: T3, biotin-labeled human RANKL-Fc protein …; test: competitive ELISA: antibody blocks biotin-labeled human RANKL-Fc binding to coated benchmark denosumab
Procedure: The next day, plates were washed with wash buffer, and blocked with 5% w/v non-fatty milk in PBST, 200 μl/well, for 2 hours at 37° C. […] After incubation at 37° C. for 40 minutes, plates were washed 4 times using wash buffer. Then the plates were added and incubated with 100 μl Peroxidase Streptavidin (1:5000 dilution in PBST buffer, Jackson Immunoresearch, Cat #016-030-084) for 40 minutes at 37° C. Plates were washed again using wash buffer. Finally, TMB was added and the reaction was stopped using 1M H₂SO₄. The absorbance of each well was read on a microplate reader using dual wavelengths mode with 450 nm for TMB and 630 nm as the reference wavelength, and the OD (450-630) values were plotted against antibody concentration. Data were analyzed using Graphpad Prism software and IC₅₀ values were reported.

[8] = target: T1, Recombinant human RANKL-his protein …; test: cell-based or functional assay; remark: listed apart in the source
[9] = target: T1, Recombinant human RANKL-his protein …; test: cell-based or functional assay; remark: listed apart in the source
[10] = target: T3, biotin-labeled human RANKL-Fc protein …; test: capture ELISA: captured antibody, biotin-labeled human RANKL-Fc, OD(450-630); remark: listed apart in the source
Procedure: as §2
For the capture ELISA, 96-well micro plates were coated with 2 μg/ml goat anti-human IgG (AffiniPure Goat Anti-Human IgG, F(ab′)₂ fragment specific, Jackson Immunoresearch, Cat #109-005-097) instead of AffiniPure Goat Anti-Mouse IgG, Fcγ fragment specific, 100 μl/well.

[11] = target: T3, biotin-labeled human RANKL-Fc protein …; test: competitive ELISA: antibody blocks biotin-labeled human RANKL-Fc binding to coated human RANK-Fc; remark: listed apart in the source
Procedure: as §3, §4

[12] = target: T3, biotin-labeled human RANKL-Fc protein …; test: competitive ELISA: antibody blocks biotin-labeled human RANKL-Fc binding to coated benchmark denosumab; remark: listed apart in the source
[13] = target: T1, Recombinant human RANKL-his protein …; test: cell-based or functional assay; remark: listed apart in the source
[14] = target: T1, Recombinant human RANKL-his protein …; test: cell-based or functional assay; remark: listed apart in the source

B1: mouse anti-RANKL monoclonal antibody B3D8 (antibody, V domains shown)
VH: EVQLVESGGDLVKSGGSLKLSCAASGFTFSRYGMSWVRQTPDKRLEWVASISSGGTYTSYPDSVKGRFTITRDSAKNTLYLQMSSLKSEDTAMYYCARRNFITSATDCYFDVWGAGTTVTVSS
VL: DTVLTQSPATLSVTPGASVSLSCRASQSISNNLHWYQQKSHESPRLLIIYASQSISGIPSRFSGSGSGTDFTLSINSVETEDFGVYFCQQSNSWPFTFGGGTKLEIK
notes: Hybridoma-derived mouse IgG; also called Mouse B3D8
Q: With B1 as the binder, how does the “IC50, RANKL-induced osteoclast differentiation of RAW264.7 cells (pNPP, OD405)” value [1] read?
A: 0.625 nM

Q: What about the Kd [2] of the same binder?
A: 0.452 nM

Q: What about the EC50 [3] of the same binder?
A: 0.162 nM

Q: And the EC50 [4]?
A: 0.489 nM

Q: What about the Kd [5] of the same binder?
A: 0.452 nM

Q: And the koff [5]?
A: 0.000277 s⁻¹

Q: What about the kon [5] of the same binder?
A: 613000 M⁻¹ s⁻¹

Q: What about the IC50 [6] of the same binder?
A: 0.233 nM

Q: And the IC50 [7]?
A: 0.548 nM

B2: mouse anti-RANKL monoclonal antibody B1A8 (antibody, V domains shown)
VH: EVQLVESGGDLVKPGGSLKLSCAASGFTFSRYGMSWVRQTPDKRLEWVASISSGGTYTSYPDSVQGRFTITRDSAKNTLYLQMSSLKSEDTAMYYCARRNFITSATDCYFDVWGAGTTVTVSS
VL: DTVLTQSPATLSVTPGASVSLSCRASQSISNNLHWYQQKSHESPRLLIIYASQSISGIPSRFSGSGSGTDFTLSINSVETEDFGVYFCQQSNSWPFTFGGGTKLEIK
notes: Hybridoma-derived mouse IgG; also called Mouse B1A8
Q: Which results are given for B2?
A: IC50, RANKL-induced osteoclast differentiation of RAW264.7 cells (pNPP, OD405) [8]: 0.967 nM; Kd [2]: 0.386 nM; EC50 [3]: 0.397 nM; EC50 [4]: 0.493 nM; Kd [5]: 0.386 nM; koff [5]: 0.000236 s⁻¹; kon [5]: 611000 M⁻¹ s⁻¹; IC50 [6]: 0.26 nM; IC50 [7]: 0.498 nM

B3: mouse anti-RANKL monoclonal antibody D1A1 (antibody, V domains shown)
VH: EVQLVESGGGLVKSGGSLKLSCAASGFTFRNYAMSWVRQTPEKRLEWVAGISSGGTYTYYPDTVKGRFTISRDNARNTLFLQMSSLRSEDTAMYYCARRDYGDVYEWYFDVWGTGTTVTVSS
VL: DIVMTQSHKFMSTSVGDRVSITCKASQDVRTSIAWYQQKPGQSPNLLIYSASYRYTGVPDRFTGSGSGTDFTFTISSVQAEDLAVYYCQQHYSSPWTFGGGTKLEIK
notes: Hybridoma-derived mouse IgG purified on Protein A; also called Mouse D1A1
Q: Which “IC50, RANKL-induced osteoclast differentiation of RAW264.7 cells (pNPP, OD405)” value [1] does the source give for B3 here?
A: 0.839 nM

Q: And the “IC50, RANKL-induced osteoclast differentiation of RAW264.7 cells (pNPP, OD405)” value [9]?
A: 3.41 nM

Q: And the Kd [2]?
A: 0.0718 nM

Q: And the EC50 [10]?
A: 0.632 nM

Q: And the EC50 [3]?
A: 0.0826 nM

Q: What about the EC50 [4] of the same binder?
A: 1.11 nM

Q: What about the Kd [5] of the same binder?
A: 0.0718 nM

Q: What about the koff [5] of the same binder?
A: 7.9e-05 s⁻¹

Q: What about the kon [5] of the same binder?
A: 1.1e+06 M⁻¹ s⁻¹

Q: And the IC50 [11]?
A: 0.414 nM

Q: And the IC50 [6]?
A: 0.0802 nM

Q: And the IC50 [7]?
A: 0.391 nM

Q: What about the IC50 [12] of the same binder?
A: 1.28 nM

B4: mouse anti-RANKL monoclonal antibody D1E3 (antibody, V domains shown)
VH: EVQLVESGGGLVKPGGSLKLSCAASGFTFSRYAMSWVRQTPEKRLEWVAGISSGGTYTYYPDTVKGRFTISRDSAKNILYLQMGSLRSEDSAMYHCARRDYGDVYEWYFDVWGTGTTVTVSS
VL: DIVMTQSHKFMSASVGDRVSITCKASQGVRIAVAWYQQKPGQSPKLLIYSASYRYTGVPDRFTGSGSGTDFTFTISSVQAEDLAVYYCQQHHSSPWTFGGGTKLEIK
notes: Hybridoma-derived mouse IgG; also called Mouse D1E3
Q: What does the source list for B4?
A: IC50, RANKL-induced osteoclast differentiation of RAW264.7 cells (pNPP, OD405) [13]: 0.998 nM; EC50 [3]: 0.0464 nM; EC50 [4]: 0.246 nM; IC50 [6]: 0.0365 nM; IC50 [7]: 0.164 nM

B5: mouse anti-RANKL monoclonal antibody B4H5 (antibody, V domains shown)
VH: DVQLQESGPDLVKPSQSLSLTCTVTGYSISSGYSWHWIRQFPGNKLEWMDYIHFSGSTNYNPSLKSRISITRDTSKNQFFLQFISVTTEDTATYYCARSGPSTYVMDYWGQGTSVTVSS
VL: DIVMTQSHRFMSTSVGDRVSITCKASQDVGAAVGWYQQKPGQSPKLLIYWASIRDTGVPDRFTGSGSGTDFTLTISNVQSEDLADYFCQHYNSYPLTFGGGTKLEIK
notes: Hybridoma-derived mouse IgG
Q: How did the “IC50, RANKL-induced osteoclast differentiation of RAW264.7 cells (pNPP, OD405)” value [14] turn out when B5 was run?
A: 1.31 nM

Q: What about the EC50 [3] of the same binder?
A: 0.583 nM

Q: What about the IC50 [6] of the same binder?
A: 2.1 nM
